Laboratory results: paper PMC3197598

Biological target: fibrin (human fibrinogen treated with alpha-thrombin) (human) (UniProt P02679)
Assay: ELISA; human fibrinogen coated overnight on MaxSorb 96-well plates, wells treated with PBS (fibrinogen) or 100 nM alpha-thrombin in 1% sodium-citrate/PBS for one hour at room temperature (fibrin); ClfA in 1% sodium-citrate added at increasing concentrations for one hour; bound ClfA detected with polyclonal anti-ClfA and anti-rabbit-HRP; non-linear regression, one-site saturation

clumping factor A (ClfA), purified recombinant, sequence (Q53653 40-899): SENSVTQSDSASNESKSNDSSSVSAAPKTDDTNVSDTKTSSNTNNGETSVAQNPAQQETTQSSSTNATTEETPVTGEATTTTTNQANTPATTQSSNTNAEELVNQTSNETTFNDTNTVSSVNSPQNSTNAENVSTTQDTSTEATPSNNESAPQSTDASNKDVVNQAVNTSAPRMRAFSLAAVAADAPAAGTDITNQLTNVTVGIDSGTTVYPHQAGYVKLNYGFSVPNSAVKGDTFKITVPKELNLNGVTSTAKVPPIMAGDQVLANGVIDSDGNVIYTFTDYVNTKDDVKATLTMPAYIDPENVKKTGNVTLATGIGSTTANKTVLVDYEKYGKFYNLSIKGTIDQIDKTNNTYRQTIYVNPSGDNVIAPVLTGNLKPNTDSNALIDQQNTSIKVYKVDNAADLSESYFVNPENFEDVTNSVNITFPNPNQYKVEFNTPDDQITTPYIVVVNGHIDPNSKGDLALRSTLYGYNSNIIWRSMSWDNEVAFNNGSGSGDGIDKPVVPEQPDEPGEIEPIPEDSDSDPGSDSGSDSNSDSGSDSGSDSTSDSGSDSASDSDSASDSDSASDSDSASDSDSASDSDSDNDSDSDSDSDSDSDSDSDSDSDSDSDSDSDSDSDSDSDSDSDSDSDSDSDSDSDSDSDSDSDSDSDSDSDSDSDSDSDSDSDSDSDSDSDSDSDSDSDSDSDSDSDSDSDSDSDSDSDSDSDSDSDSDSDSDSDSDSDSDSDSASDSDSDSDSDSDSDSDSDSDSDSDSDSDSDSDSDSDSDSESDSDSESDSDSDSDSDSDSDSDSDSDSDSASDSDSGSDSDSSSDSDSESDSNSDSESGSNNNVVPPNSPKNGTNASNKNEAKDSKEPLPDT

clumping factor A (ClfA), purified recombinant (from UniProt Q53653 40-899) (natural protein)
Kd: 0.662 µM
